Measurements reported in patent US20210324054A1.

How the values were obtained:
[1] = target: DN-IV quality control recombinant protein (produced by the company) (dengue virus); test: BLI, antibody on AMC sensor
[2] = target: Antigen DN-IV-Ag# (Fapon Biotech Inc.) (dengue virus); test: indirect ELISA on coated DN-IV-Ag#, antibody diluted 81 times
[3] = target: Antigen DN-IV-Ag# (Fapon Biotech Inc.) (dengue virus); test: indirect ELISA on coated DN-IV-Ag#, antibody initial
[4] = target: Antigen DN-IV-Ag# (Fapon Biotech Inc.) (dengue virus); test: indirect ELISA on coated DN-IV-Ag#, antibody diluted 729 times
[5] = target: Antigen DN-IV-Ag# (Fapon Biotech Inc.) (dengue virus); test: indirect ELISA on coated DN-IV-Ag#, antibody diluted 9 times
[6] = target: Antigen DN-IV-Ag# (Fapon Biotech Inc.) (dengue virus); test: indirect ELISA on coated DN-IV-Ag#, antibody diluted 27 times
[7] = target: Antigen DN-IV-Ag# (Fapon Biotech Inc.) (dengue virus); test: indirect ELISA on coated DN-IV-Ag#, antibody diluted 3 times
[8] = target: Antigen DN-IV-Ag# (Fapon Biotech Inc.) (dengue virus); test: indirect ELISA on coated DN-IV-Ag#, antibody diluted 243 times

Binder	Kd [1] [nM]	koff [1] [s⁻¹]	kon [1] [M⁻¹ s⁻¹]	OD450 (reference 630 nm) [2] [OD]	OD450 (reference 630 nm) [3] [OD]	OD450 (reference 630 nm) [4] [OD]	OD450 (reference 630 nm) [5] [OD]	OD450 (reference 630 nm) [6] [OD]	OD450 (reference 630 nm) [7] [OD]	OD450 (reference 630 nm) [8] [OD]
WT (recombinant anti-dengue virus NS1 7F8 antibody of Example 2) (antibody, mouse IgG1, kappa, V domains shown) VH: EVQLQQPGPELVKPGASVKMSCKASGYTVTSYVIHWVRQKPGQGLEWIGYMNAYNDGIKYNEKFIGKAILTSDKSSSTAYMQLSSLTSEDSAVYYCTKEGLFYVMDYWGQGTSVTVSS VL: QIVLTQSPAIMSASPGEKVTMTCSATSSISYMHWYQQKSGTSPKRWIYDTSKLASPVPVRFSGSGSGTSYSLTISSMEAEDAATYFCQYWRSDLPTFGAGTKLELKR	3.15	0.000139	44200	0.24	1.42	0.211	0.781	0.398	1.18	0.2
Mutation 3 (antibody, V domains shown) VH: EVQLQQPGPELVKPGASVKMSCKASGYTLTSTVIHWVRQKPGQGLEWIGYMNKYNDGLKYNPKFIGKAILTSDKSSSTAYMQLSSLTSEDSAVYYCTKEGLFYVMDYWGQGTSVTVSS VL: QIVLTQSPAIMSASPGEKVTMTCSVTSSISYMHWYQQKSGTSPKRWIYDTSKLASCVPVRFSGSGSGTSYSLTISSMEAEDAATYFCQQWRSQLPTFGAGTKLELKR					0.923		0.062		0.347	
Mutation 1-22 (antibody, V domains shown) VH: EVQLQQPGPELVKPGASVKMSCKASGYTFTSSVIHWVRQKPGQGLEWIGYMNPYNDGLKYNEKFIGKAILTSDKSSSTAYMQLSSLTSEDSAVYYCTREGLFYVFDYWGQGTSVTVSS VL: QIVLTQSPAIMSASPGEKVTMTCSATSSVSYMHWYQQKSGTSPKRWIYDSSKLASGVPVRFSGSGSGTSYSLTISSMEAEDAATYFCQWWRSDLPTFGAGTKLELKR	0.59	0.000245	415000							
Mutation 1-21 (antibody, V domains shown) VH: EVQLQQPGPELVKPGASVKMSCKASGYTFTSTVIHWVRQKPGQGLEWIGYMNPYNDGIKYNEKFIGKAILTSDKSSSTAYMQLSSLTSEDSAVYYCTREGLFYVMDYWGQGTSVTVSS VL: QIVLTQSPAIMSASPGEKVTMTCSATSSLSYMHWYQQKSGTSPKRWIYDTSKLASGVPVRFSGSGSGTSYSLTISSMEAEDAATYFCQWWRSDLPTFGAGTKLELKR	0.693	0.000269	388000							
Mutation 1-16 (antibody, V domains shown) VH: EVQLQQPGPELVKPGASVKMSCKASGYTFTSSVIHWVRQKPGQGLEWIGYMNPYNDGLKYNEKFIGKAILTSDKSSSTAYMQLSSLTSEDSAVYYCTREGLFYVMDYWGQGTSVTVSS VL: QIVLTQSPAIMSASPGEKVTMTCSATSSLSYMHWYQQKSGTSPKRWIYDTSKLASGVPVRFSGSGSGTSYSLTISSMEAEDAATYFCQWWRSDLPTFGAGTKLELKR	3.38	0.000124	36700							
Mutation 1-19 (antibody, V domains shown) VH: EVQLQQPGPELVKPGASVKMSCKASGYTFTSSVIHWVRQKPGQGLEWIGYMNPYNDGIKYNEKFIGKAILTSDKSSSTAYMQLSSLTSEDSAVYYCTREGLFYVMDYWGQGTSVTVSS VL: QIVLTQSPAIMSASPGEKVTMTCSATSSVSYMHWYQQKSGTSPKRWIYDTSKLASGVPVRFSGSGSGTSYSLTISSMEAEDAATYFCQQWRSDLPTFGAGTKLELKR	2.41	0.000113	46800							
Mutation 1-14 (antibody, V domains shown) VH: EVQLQQPGPELVKPGASVKMSCKASGYTFTSYVIHWVRQKPGQGLEWIGYMNPYNDGIKYNEKFIGKAILTSDKSSSTAYMQLSSLTSEDSAVYYCTKEGLFYVMDYWGQGTSVTVSS VL: QIVLTQSPAIMSASPGEKVTMTCSATSSVSYMHWYQQKSGTSPKRWIYDSSKLASGVPVRFSGSGSGTSYSLTISSMEAEDAATYFCQQWRSDLPTFGAGTKLELKR	2.75	0.00012	43600							
Mutation 1-15 (antibody, V domains shown) VH: EVQLQQPGPELVKPGASVKMSCKASGYTFTSTVIHWVRQKPGQGLEWIGYMNPYNDGIKYNEKFIGKAILTSDKSSSTAYMQLSSLTSEDSAVYYCTKEGLFYVFDYWGQGTSVTVSS VL: QIVLTQSPAIMSASPGEKVTMTCSATSSISYMHWYQQKSGTSPKRWIYDSSKLASGVPVRFSGSGSGTSYSLTISSMEAEDAATYFCQYWRSDLPTFGAGTKLELKR	3.79	0.00017	44800							
Mutation 1-17 (antibody, V domains shown) VH: EVQLQQPGPELVKPGASVKMSCKASGYTFTSYVIHWVRQKPGQGLEWIGYMNPYNDGIKYNEKFIGKAILTSDKSSSTAYMQLSSLTSEDSAVYYCTKEGLFYVMDYWGQGTSVTVSS VL: QIVLTQSPAIMSASPGEKVTMTCSATSSVSYMHWYQQKSGTSPKRWIYDSSKLASGVPVRFSGSGSGTSYSLTISSMEAEDAATYFCQWWRSDLPTFGAGTKLELKR	2.52	0.000114	45200							
Mutation 1-20 (antibody, V domains shown) VH: EVQLQQPGPELVKPGASVKMSCKASGYTFTSYVIHWVRQKPGQGLEWIGYMNPYNDGLKYNEKFIGKAILTSDKSSSTAYMQLSSLTSEDSAVYYCTKEGLFYVFDYWGQGTSVTVSS VL: QIVLTQSPAIMSASPGEKVTMTCSATSSISYMHWYQQKSGTSPKRWIYDSSKLASGVPVRFSGSGSGTSYSLTISSMEAEDAATYFCQYWRSDLPTFGAGTKLELKR	3.53	0.000161	45600							
Mutation 2 (antibody, V domains shown) VH: EVQLQQPGPELVKPGASVKMSCKASGYTFTSTVIHWVRQKPGQGLEWIGYMNGYNDGLKYNNKFIGKAILTSDKSSSTAYMQLSSLTSEDSAVYYCTKEGLFYVMDYWGQGTSVTVSS VL: QIVLTQSPAIMSASPGEKVTMTCSATSSISYMHWYQQKSGTSPKRWIYDTSKLASAVPVRFSGSGSGTSYSLTISSMEAEDAATYFCQQWRSDLPTFGAGTKLELKR				0.216	1.59	0.157	1.05	0.578	1.48	0.11
Mutation 1 (antibody, V domains shown) VH: EVQLQQPGPELVKPGASVKMSCKASGYTFTSTVIHWVRQKPGQGLEWIGYMNPYNDGLKYNEKFIGKAILTSDKSSSTAYMQLSSLTSEDSAVYYCTKEGLFYVMDYWGQGTSVTVSS VL: QIVLTQSPAIMSASPGEKVTMTCSATSSISYMHWYQQKSGTSPKRWIYDTSKLASGVPVRFSGSGSGTSYSLTISSMEAEDAATYFCQQWRSDLPTFGAGTKLELKR	2.85	0.000126	44200	0.203	1.61	0.111	1.07	0.445	1.39	0.103
Mutation 1-18 (antibody, V domains shown) VH: EVQLQQPGPELVKPGASVKMSCKASGYTFTSTVIHWVRQKPGQGLEWIGYMNPYNDGLKYNEKFIGKAILTSDKSSSTAYMQLSSLTSEDSAVYYCTKEGLFYVFDYWGQGTSVTVSS VL: QIVLTQSPAIMSASPGEKVTMTCSATSSLSYMHWYQQKSGTSPKRWIYDSSKLASGVPVRFSGSGSGTSYSLTISSMEAEDAATYFCQYWRSDLPTFGAGTKLELKR	0.572	0.000243	425000							
